T1: MERS-CoV RBD WT (MERS-CoV, UniProt K9N5Q8 367-606)
T1 sequence: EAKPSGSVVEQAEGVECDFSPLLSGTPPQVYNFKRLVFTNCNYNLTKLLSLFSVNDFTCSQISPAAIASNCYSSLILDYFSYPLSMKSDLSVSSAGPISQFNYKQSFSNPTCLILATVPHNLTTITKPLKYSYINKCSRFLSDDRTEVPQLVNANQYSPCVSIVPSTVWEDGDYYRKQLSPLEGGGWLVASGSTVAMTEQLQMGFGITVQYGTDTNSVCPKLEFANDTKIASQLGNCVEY

B1: S728-537 (antibody, V domains shown)
VH: QVQLVQSGAEVKKPGASVKVSCKTSGYTFTGFYLHWLRQAPGQGLEWMGRINPNTGDTDYAQKFQGRVTMTRDTSISTAYMELSRLRADDTAVYYCARTPGQTRQLFVGTNVLDVWGQGTMVTVSS
VL: DIQMTQSPSSVSASVGDRVTITCRASQGISSWLAWYQQKPGKAPKVLIFAASSLQSGVPSRFSGSGSGTDFTLTITSLQPEDFATYFCQQTNSFPPTFGGGTKVEIK
B2: S728-1261 (antibody, V domains shown)
VH: QVQLQESGPGLVKPSGTLSLTCAVSGGSISNNNWWIWVRQPPGKGLEWIGEIHHSGSTDYNPSLKSRVTISIDKSKNQFSLRLSSVTAADTAVYYCARKPEPYYYYYYMDVWGKGTTVTVSS
VL: ETVLTQSPGTLSLSPGERATLSCRASQSVSSSYITWYQQKPGQAPRLLIYGASSRATGIPDRFSGSGSGTDFTLTISRLEPEDFAVYYCQQYRSPWGLTFGPGTKVDIK
B3: S728-1157 (antibody, V domains shown)
VH: EVQLVESGGGLVQPGGSLRLSCAASGLLVSRNYMNWVRQAPGKGLEWVSIIYSGGSTFYADSVEGRFTISRDESKNTLYLQMNSLRTDDTAVYYCARDLSDYGGIDCWGQGTLVTVSS
VL: YELTQPLSVSMALGQTARISCGGDNVGSQNVHWYQQRPGQAPVLVIYRDSNRPSGIPERFSGSKSGNTATLTISRAQAGDEADYYCQVWDSSTVAFGGGTKLTVL
B4: S728-430 (antibody, V domains shown)
VH: EVQLVESGGGLIQPGGSLRLSCAASGFTVSSNYMSWVRQAPGKGLEWVSVIYSGGSTYYADSVKGRFTISRDNSKNTLYLQMNSLRAEDTAVYYCARTPRGSRRGAFDIWGQGTMVTVSS
VL: not shown
B5: S728-369 (antibody, V domains shown)
VH: QVQLQESGPGLVKPSQTLSLTCSVSGGSISSGGYYWSWIRQHPGKGLEWIGYMYYSGSTYYNPSLKSRVTIFVDTSKNHFSLKLTSVTAADTAVYYCARDSYENYYGSGSLEPNYHHYNMDVWGQGTTVTVSS
VL: DVQMTQSPSTLSASIGDRVTITCRASQSISGWLAWYQQRPGKAPKLLIYRASSLDFGVPSRFSGNGSGTEFTLTISSLQPDDFATYYCQQYHTYRTFGQGTKVEVK
B6: S728-209 (antibody, V domains shown)
VH: QITLKESGPTLVKPTQTLTLTCTLSGFSLSTSGVSVGWIRQPPGKALEWLAVIFWDDDKRYNPSLKSRLTIAKDTSKSQVVLTMTNLDPVDTGTYYCVSGSSYYYYYYMDVWGKGTTVTVSS
VL: DIQMTQSPSSVSASIGDRVTITCRASQDISTWLAWYQQKPGRAPNLLIYGASSLQSGVPSRFSGSGSGTDFTLTISSLQPEDFATYYCQQATSFPLTFGGGTKVEIK
B7: S144-509 (antibody, V domains shown)
VH: EVQLVQSGAEVKKPGESLKISCKGSAYTFTTYWIGWVRQMPGKGLEWMGIIYPGDSDTRYSPSFQGQVTISADKSISTAYLQWSSLKASDTAMYYCARLLLVAGPFDYWGQGTLVTVSS
VL: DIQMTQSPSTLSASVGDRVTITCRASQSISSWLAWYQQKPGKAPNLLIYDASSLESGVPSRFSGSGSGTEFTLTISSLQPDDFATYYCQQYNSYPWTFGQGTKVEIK
B8: S728-537 (antibody, V domains shown)
VH: B1 VH
VL: B1 VL
B9: S144-466 (antibody, V domains shown)
VH: EVQLVQSGAEVKKPGESLKISCKGSGYRFTRYWIGWVRQMPGKGLEWMGIIYLGDSETRYSPSFQGQVTISADNSISTAYLQWSSLKASDTAMYYCARSSNWNYGDYWGQGTLVTVSS
VL: DIQMTQSPSTLSASVGDRVTITCRASQSITSWLAWYQQKSGKAPKLLIYDASSLESGVPSRFSGSGSGTEFTLTISSLQPDDFATYYCQQYNSYPWTFGQGTKVEIK
B10: S728-1157 (antibody, V domains shown)
VH: B3 VH
VL: B3 VL
B11: S24-1384 (antibody, V domains shown)
VH: EVQLVESGGGLVQPGGSLRLSCAVSGFTFSSYSMNWVRQAPGKGLEWVSYISSSSSIIYYADSVKGRFTISRDNAKNSLYLQMNSLRAEDTAVYYCARDFLDYSRSYSYGMDVWGQGTTVTVSS
VL: SYVLTQPPSVSVAPGQTARITCGGDNIGSKNVHWYQQKPGQAPVLVVFDDSDRPSGIPERFSGSNSGNTATLTISRVEAGDEADYYCQVWDSSSDHYVVFGGGTKLTVL
B12: S144-69 (antibody, V domains shown)
VH: EVQLVQSGAEVKKPGESLKISCKGSGYSFTSYWIGWVRQMPGKGLEWMGIIYPGDSDTRYSPSFQGQVTISADKSITTAYLQWSSLKASDTAMYYCARTQTTNWFDSWGQGTLVTVSS
VL: DIQMTQSPSTLSVSVGDRVTITCRASQSVSSWLAWYQQKPGKAPKLLIYDASSLESGVPSRFSGSGSGTEFTLTISSLQPDDFATYYCQQYNSFYTFGQGTKLEIK
B13: S728-1690 (antibody, V domains shown)
VH: QVQLVQSGAEVVKPGSSVKVSCKASGGTFTRYAISWVRQAPGQGPEWMGRIIPMFGIANYAQRFQGRVTMTADKSTSTAYMELSSLRSEDTAVYYCATCQYYYDSSGYGSLDYWGQGTQVTVSS
VL: EIVLTQSPGTLSLSPGERVTLSCRASQSISSNFLAWYQQKPGQAPRLLISGASSRATGIPDRFSGGGSGTDFTLTISRLEPEDFAVYYCQQYHSSPRTFGQGTKVEIK
B14: S728-430 (antibody, V domains shown)
VH: B4 VH
VL: not shown
B15: S564-152 (antibody, V domains shown)
VH: QVQLVESGGGVVQPGRSLRLSCAASGFTFSYYGMHWVRQAPGKGLEWVAVIWYDGSNKHYADSVKGRFTISRDNSKNTLYLQMNSLRAEDTAVYYCAKNAAPYCSGGSCYGTYFDYWGQGTLVTVSS
VL: DIQMTQSPSSLSASVGDRVTITCQASQDINNYLNWYQQKPGKAPKLLIYDASNLETGVPSRFSGSGSGTDFTFTISSLQPEDIATYYCQQYDNVPPHTFGQGTKLEIK
B16: S728-2036 (antibody, V domains shown)
VH: QVHLVQSGAEIRKPGASVMVSCKASGYTFTDYYIHWVRQAPGQGLEWMGWINPNSGGTNYAQKFQGRVTMTRDTSIRTAYMELSRLRSDDAAVYYCAREGISMLRGVRSWFDPWGQGTLVTVSS
VL: QSALTQPASVSGSPGQSITISCTGTSSDVGSYNLVSWYQQHPGKVPKLIIYEVTKRPSGVSNRFSGSKSGNTASLTISGLQTEDEADYYCCSYAGFSAWVFGGGTKLTVL
B17: S728-1981 (antibody, V domains shown)
VH: QVQLVQSGAEVKKPGASVKVSCKTSGYTFTNYFMHWVRQAPGQGLEWMGIINPSGGSASYAQKFQGRITMTSDTSTSTVYMELSSLRSEDTAVYYCAREDIIVVVPARPLDYWGHGTLVTVSS
VL: EIVLTQSPATLSLSPGERATLSCRASQSFSNYLAWYQQKPGQAPRLLIYDASNRATGIPARFSGSGSGTDFTLTISSLEPEDFAVYYCQQRSNWPPLLTFGGGTKVEIK

Molecular target: T2, SARS-CoV-2 spike receptor-binding domain (RBD), WT (SARS-CoV-2, UniProt P0DTC2 319-541)
T2 construct: domain: RBD
Experiment: epitope specificity column of the table of RBD-reactive mAbs (ELISA)

Binder	binding result
B1	binds
B2	binds
B3	binds
B4	binds
B5	binds
B6	binds

Molecular target: SARS-CoV-1 RBD WT (SARS-CoV-1, UniProt P59594 306-527)
Experiment: ELISA

Binder	binding result
B7	binds
B8	no binding (tested: 10 ug/ml top of dilution series)
B9	binds
B10	no binding
B11	binds
B12	binds
B13	no binding (tested: 10 ug/ml top of dilution series)
B14	no binding (tested: 10 ug/ml top of dilution series)
B15	binds

Molecular target: T3, S1 monomeric WT (SinoBiological) (SARS-CoV-2, UniProt P0DTC2 16-685)
T3 construct: domain: S1
Experiment: ELISA

Binder	binding result
B16	binds
B17	binds

Molecular target: T1, MERS-CoV RBD WT
Experiment: ELISA

Binder	binding result
B8	no binding (tested: 10 ug/ml top of dilution series)
B13	no binding (tested: 10 ug/ml top of dilution series)
B14	no binding (tested: 10 ug/ml top of dilution series)

— patent publication US20250026814A1 (UNIVERSITY OF CHICAGO, published 2025)
